Measured values as given in paper PMC9845307, “Arabidopsis LSH10 transcription factor and OTLD1 histone deubiquitinase interact and transcriptionally regulate the same target genes”.

T1: GST-LSH10 (Arabidopsis, UniProt Q9S7R3 1-177)
T1 sequence: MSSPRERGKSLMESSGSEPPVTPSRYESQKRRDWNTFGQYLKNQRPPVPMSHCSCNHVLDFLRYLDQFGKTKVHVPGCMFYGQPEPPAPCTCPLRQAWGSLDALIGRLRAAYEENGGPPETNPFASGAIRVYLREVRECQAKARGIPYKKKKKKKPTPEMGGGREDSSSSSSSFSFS


Biological target: T1, GST-LSH10
Assay: EMSA; poly dI.dC; reduced by 300x unlabeled probe; 100 mM Tris, 500 mM KCl, 10 mM DTT, pH 7.5 (as printed binding buffer), 1 ug dI.dC, 10 ng probe, 1 ug protein, room temperature 20 min, 6% native PAGE
Details: protein: recombinant; tags: N-terminal GST (pGEX-5X-1); label: biotin (labeled probe)

Binder	binding result
probe a (OSR2) (dsDNA) DNA 1: TAATATAAATTGCGTTTTGTTTTCCAGATATCAA DNA 2: TTGATATCTGGAAAACAAAACGCAATTTATATTA	binds
probe c (WUS) (dsDNA) DNA 1: TTTTAGAATTTTTGTTTTGTTTTCTGTGTGTATG DNA 2: CATACACACAGAAAACAAAACAAAAATTCTAAAA	binds
probe d (WUS) (dsDNA) DNA 1: TATATATATATAATCTTCTCTCTCACACAAAACCTAAAA DNA 2: TTTTAGGTTTTGTGTGAGAGAGAAGATTATATATATATA	binds
probe e (WUS) (dsDNA) DNA 1: ATTTACCGTTAACTTTGTGAACAAAAGTCGAATCAAACACAC DNA 2: GTGTGTTTGATTCGACTTTTGTTCACAAAGTTAACGGTAAAT	binds
probe f (ABI5) (dsDNA) DNA 1: GCTTTTAAACTATGTGAAGGAGGAGAACCTCCATAACAA DNA 2: TTGTTATGGAGGTTCTCCTCCTTCACATAGTTTAAAAGC	binds
probe g (ABI5) (dsDNA) DNA 1: ACAAGAAGCGGATTCTCTCAGTTTTCCGGCGGCGGAGGAACA DNA 2: TGTTCCTCCGCCGCCGGAAAACTGAGAGAATCCGCTTCTTGT	binds
probe h (ARL) (dsDNA) DNA 1: TCAGAGAAAGTGTCTAGGGGAGAAGAACCACTGTGATTG DNA 2: CAATCACAGTGGTTCTTCTCCCCTAGACACTTTCTCTGA	binds

Same assay, conditions: protein: recombinant; tags: N-terminal GST (pGEX-5X-1); label: biotin (labeled probe); internal mismatch/bulge as printed

Binder	binding result
probe b (OSR2) (dsDNA) DNA 1: CTGTAACGTCTTTCTCTTCACACACATAAAAAAG DNA 2: CTTTTTTATGTGTGTGAGAGAGAAAGACGTTACAG	binds

Biological target: OTLD1-RFP (Arabidopsis)
Assay: FRET or BRET; acceptor photobleaching FRET (AB-FRET): GFP donor, RFP acceptor, transiently co-expressed in N. benthamiana leaves; %AB-FRET = percent increase in GFP emission after RFP photobleaching, cell nucleus, n = 13 cells
Details: not given

OTLD1-RFP (Arabidopsis), sequence (F4IFS7 whole entry): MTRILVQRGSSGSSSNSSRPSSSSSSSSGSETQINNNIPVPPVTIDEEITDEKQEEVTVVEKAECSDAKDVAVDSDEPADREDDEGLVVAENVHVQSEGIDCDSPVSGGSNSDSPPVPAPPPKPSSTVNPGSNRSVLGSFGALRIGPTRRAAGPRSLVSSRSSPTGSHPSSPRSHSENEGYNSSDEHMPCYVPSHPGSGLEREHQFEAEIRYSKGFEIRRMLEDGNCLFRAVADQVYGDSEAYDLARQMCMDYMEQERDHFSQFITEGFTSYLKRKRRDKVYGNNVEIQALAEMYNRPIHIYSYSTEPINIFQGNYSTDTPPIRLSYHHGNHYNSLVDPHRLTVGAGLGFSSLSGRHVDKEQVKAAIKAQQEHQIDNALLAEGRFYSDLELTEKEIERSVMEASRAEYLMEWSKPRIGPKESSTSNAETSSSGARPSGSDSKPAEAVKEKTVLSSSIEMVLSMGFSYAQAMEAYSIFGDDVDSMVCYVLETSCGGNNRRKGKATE

Binder	%AB-FRET (increase in the donor fluorescence)
LSH10-GFP (natural protein) MSSPRERGKSLMESSGSEPPVTPSRYESQKRRDWNTFGQYLKNQRPPVPMSHCSCNHVLDFLRYLDQFGKTKVHVPGCMFYGQPEPPAPCTCPLRQAWGSLDALIGRLRAAYEENGGPPETNPFASGAIRVYLREVRECQAKARGIPYKKKKKKKPTPEMGGGREDSSSSSSSFSFS	13%
